The results in this text go back to US20240294613A1 (BROAD INSTITUTE, published 2024).

Assay [1] has as its target SARS-COV-2 full-length S (containing G at position 614) (SARS-COV-2, UniProt P0DTC2 14-1273). The experiment in a line: cell-based or functional assay.
Assay [2] shares this target. The experiment in a line: cell-based or functional assay. The source holds these as a separate data set.

B1: BG10-8 dimeric IgA (antibody, V domains shown)
VH: QMELVESGGGLVKPGGSLRLSCASSGFSLGDYYMTWIRQAPGKGLEWVSYISRSDGKTFYADSVKGRFTLSTDDGKKSLYLQMNSLRAEDTAVYYCVRGEGGPHDAFDIWGQGTMVTVSS
VL: TSYVLTQPPSVSVAPGQTARISCGGNNIESKTVHWYQQKPGQAPILVVYDDNDRPSGIPERFSGSNSGNTATLSISRAEAGDEADYYCQVWDSSRDLRVFGGGTKLSVLG
Regarding B1, in assay [1], the “IC50, SARS-COV-2 pseudovirus neutralization” value stood at 0.026 µg/mL and the “molar neutralization ratio (MNR)” value was found to be 10.9.

B2: BG7-15 (antibody, V domains shown)
VH: QVQLVQSGAEVKKPGASVKVSCKASGYTFTSYAISWVRQAPGQGLEWMGWVSAYNGNTNYAQKLQGRVTMTTDTSTNTAYMELRSLRSDDTAIYYCAIPYSSVTFDCWGQGTLVTVSS
VL: EIVLTQSPGTLSLSPGERATLSCRASQSVSGTFLAWYQQKPGQAPRLLISGASSRATGIPDRFSGSGSGTDFTLTISRLEPEDFAVYYCQQYGSSRPTFGQGTKLEIKR
B2: the “PV IC50” value in assay [2] was 0.016 µg/mL.

B3: BG7-18 (antibody, V domains shown)
VH: EVQLMESGGGLIQPGGSLRLSCAASGFIVSSNYMSWVRQAPGKGLEWVSVIYSGGGTDYADSVKGRFTISRDNSKNTLFLQMNSLRAEDTAVYYCARGAAMVKELFDYWGQGTQVTVSS
VL: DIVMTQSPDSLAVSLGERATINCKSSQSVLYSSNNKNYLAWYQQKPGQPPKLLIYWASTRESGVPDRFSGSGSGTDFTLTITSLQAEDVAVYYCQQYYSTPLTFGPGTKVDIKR
As to B3, the “PV IC50” value in assay [2] is 0.083 µg/mL.

B4: BG1-15 dimeric IgA (antibody, V domains shown)
VH: DVQLVESGGVVVQPGGSLRLACAASGFTFDDYAMHWVRQAPGKGLEWVSLITRDGGSTHYADSVKGRFTISRDNSKNSLYLQMNSLRLEDTAFYYCAKDGRRDGYNHALDNWGQGTLVTVSS
VL: DIQMTQSPSTLSASVGDRVTITCRASQSISSWLAWYQQKPGKAPKLLINRASSLESGVPSRFSGSGSGTEFTLTISSLQPDDFATYYCQQYSSYPTFGQGTKVEIKR
B4: the “IC50, SARS-COV-2 pseudovirus neutralization” value in assay [1] stood at 6.5 µg/mL.
